Results: PMC5034880

Target: T1, PGL-3 (1-633)-6xHis-mEGFP (ΔRGG) (Caenorhabditis elegans, UniProt G5EBV6 1-633)
T1 sequence: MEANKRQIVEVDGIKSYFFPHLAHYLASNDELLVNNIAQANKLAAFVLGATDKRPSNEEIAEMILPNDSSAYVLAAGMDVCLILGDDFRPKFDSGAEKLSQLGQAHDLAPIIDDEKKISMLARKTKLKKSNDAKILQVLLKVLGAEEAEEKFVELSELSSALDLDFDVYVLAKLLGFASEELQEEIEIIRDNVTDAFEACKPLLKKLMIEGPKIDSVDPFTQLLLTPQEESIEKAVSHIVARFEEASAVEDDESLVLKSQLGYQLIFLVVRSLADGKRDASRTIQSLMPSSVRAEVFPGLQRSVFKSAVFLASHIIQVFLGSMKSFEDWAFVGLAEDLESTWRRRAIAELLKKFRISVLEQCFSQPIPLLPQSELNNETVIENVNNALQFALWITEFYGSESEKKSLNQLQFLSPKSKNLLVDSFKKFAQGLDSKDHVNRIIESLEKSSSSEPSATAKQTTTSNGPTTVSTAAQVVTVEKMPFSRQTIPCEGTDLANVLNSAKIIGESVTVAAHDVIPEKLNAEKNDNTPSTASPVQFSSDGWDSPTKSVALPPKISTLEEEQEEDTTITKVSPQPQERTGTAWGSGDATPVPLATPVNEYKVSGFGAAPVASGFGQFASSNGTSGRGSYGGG
Assay: filter binding

**Q.** Which binding signal does the source give for GUUGUUGUUGUUGUUGUUGUUGUUGUUGUUAAAAAAAAAA (ssRNA) [(GUU)10A10 RNA] here?
**A.** > 60 fold weaker than full-length PGL-3
